Test results published in article PMC2148073.

What was measured:
[1] = target: native syntaxin 1A from PC12 cells (rat (endogenous in PC12)) (UniProt P32851)
[2] = target: native syntaxin 1A from PC12 cells (rat (endogenous in PC12)) (UniProt P32851); remark: listed apart in the source

Sequence of UniProt P32851 (P32851 whole entry): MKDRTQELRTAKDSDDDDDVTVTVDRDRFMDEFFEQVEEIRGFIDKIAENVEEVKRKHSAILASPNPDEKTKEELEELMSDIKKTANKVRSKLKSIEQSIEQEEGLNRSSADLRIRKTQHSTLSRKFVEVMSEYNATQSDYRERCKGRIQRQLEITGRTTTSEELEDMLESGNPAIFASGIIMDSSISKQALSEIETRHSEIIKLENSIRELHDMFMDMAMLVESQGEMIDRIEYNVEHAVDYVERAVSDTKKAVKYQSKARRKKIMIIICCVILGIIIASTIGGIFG

**Q.** How did the half-maximal inhibition of Ca2+-triggered [3H]-NE release from cracked PC12 cells (dose response of GST-Kv2.1-C1); pair blocked: endogenous Kv2.1 with syntaxin [1] turn out when “GST-fused Kv2.1-C1 protein (domain or fragment)” was run?
**A.** 2 µM

**Q.** What about the inhibition of Ca2+-triggered [3H]-NE release from cracked PC12 cells at increasing concentrations of GST-Kv2.1-C1 (from 10 nM; saturation at 5 µM); pair blocked: endogenous Kv2.1 with syntaxin [1] of the same substance?
**A.** 57%

**Q.** What about the inhibition of Ca2+-triggered [3H]-NE release from cracked PC12 cells by 10–20 µM GST-fusion peptide present during priming and triggering; pair blocked: endogenous Kv2.1 with syntaxin [2] of the same substance?
**A.** 60%
